Measured values reported in the supplement of paper PMC10567573.

B1: TMEM192 (parent)
chain: LWILHLLLECYIQYHHSKIRNRGY
B2: RAD51 (parent)
chain: APKKELINIKGISEAKADKILAEA

Variants of: B1
Test: protein stability index of a GFP-peptide fusion (GPS, HEK-293T) (PSI 1-6); higher = more stable
Conditions: c terminus: a fixed tail appended
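Further: lentivirally expressed fusions sorted by FACS into six bins by GFP to DsRed ratio, PSI derived from sequencing read proportions per bin multiplied by bin number.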

Protein stability index of substitutions, site by site:
W2: P 1.23, Y 1.25, V 3.84, E 1.73, R 1.63, T 1.86, M 2.41, G 2.73, S 1.58, D 1.88, A 2.2, F 3.58, K 1.94, H 2.14, N 2.28, Q 2.66
I3: L 3.4, E 1.68, A 1.76, N 2.2, G 1.37, M 1.35, K 2.31, Q 1.37, H 2.09, D 1.71, C 2.62
L1: H 4.56, G 3.04, E 3.02, T 3.75, V 2.17, A 3.09, K 2.06, I 2.1, C 2.89, Q 3.9, M 1.48, D 3, Y 2.72

Variants of: B2
Test: as above
Conditions: c terminus: a fixed tail appended

Protein stability index: each site, then its substitutions
K16: L 3.28, E 5.08, D 5, A 4.47, V 3.98, H 4.78, C 4.63, G 5.01, I 3.8, Q 4.65, R 4.53, Y 3.93, M 3.59, F 3.67
P2: Q 4.88, F 3.62, V 4.44, L 3.97, I 4.01, W 3.79, H 4.85, N 4.39, T 4.6, E 4.7, D 5.18, R 4.02, Y 4.18, S 4.36, A 4.93
L21: G 4.73, S 5.46, E 4.54, D 5.58, K 5.2, A 4.91, V 4.79, C 5.15, N 5.02, W 4.27, R 4.96, H 4.95, Y 4.58
A1: R 4.63, Q 4.55, L 4.72, V 4.08, H 4.37, P 4.67, T 4.41, I 4.39, C 4.73, D 4.31
A17: Y 4.08, F 3.73, C 5.04, R 4.62, S 5, Q 5.11, K 4.83, M 4.43, V 4.53, W 3.98, H 4.49
D18: M 3.31, L 3.9, K 4.78, T 4.04, V 4.07, H 4.29, S 3.53, P 5.17, G 4.16, W 2.76, Q 4.27, Y 2.63
K19: E 5.12, T 4.83, F 3.7, S 4.89, I 3.38, W 3.48, Q 4.78, M 4.43, A 3.63, C 4.44, N 4.84, L 3.89, G 4.93, V 4.49, R 4.26
I9: N 5.26, P 5.4, F 4.51, Y 4.91, G 5.11, D 5.19, Q 4.8, K 5.22, C 5.4, H 4.66, M 5.06, V 5.1, R 5.12, T 5.24, E 5.68
I20: N 5.38, M 5.16, V 4.97, W 4.26, L 4.86, E 5.33, D 5.47, G 5.1, Y 4.61, T 5.16, F 4.02
I12: S 5.27, Q 5.33, L 4.64, H 5.44, A 5.28, R 5.14, G 4.69, P 5.15
K4: V 4.82, F 4.5, Q 4.6
